Reference: doi:10.1101/2022.10.09.511515, “DNA segment capture by Smc5/6 holo-complexes” (bioRxiv, 2022)

Molecular target: T1, Smc5(G1054C) (S. cerevisiae, UniProt Q08204 1-1093, G1054C)
T1 construct: Smc5, S. cerevisiae; subunit of the Smc5/6 hexamer; Stood in the assay as a subunit of the purified Smc5/6 hexamer (Smc5, Smc6, Nse1-4); also called Smc5 with the engineered cysteine of the Smc5/Nse4 interface
T1 sequence (looked up): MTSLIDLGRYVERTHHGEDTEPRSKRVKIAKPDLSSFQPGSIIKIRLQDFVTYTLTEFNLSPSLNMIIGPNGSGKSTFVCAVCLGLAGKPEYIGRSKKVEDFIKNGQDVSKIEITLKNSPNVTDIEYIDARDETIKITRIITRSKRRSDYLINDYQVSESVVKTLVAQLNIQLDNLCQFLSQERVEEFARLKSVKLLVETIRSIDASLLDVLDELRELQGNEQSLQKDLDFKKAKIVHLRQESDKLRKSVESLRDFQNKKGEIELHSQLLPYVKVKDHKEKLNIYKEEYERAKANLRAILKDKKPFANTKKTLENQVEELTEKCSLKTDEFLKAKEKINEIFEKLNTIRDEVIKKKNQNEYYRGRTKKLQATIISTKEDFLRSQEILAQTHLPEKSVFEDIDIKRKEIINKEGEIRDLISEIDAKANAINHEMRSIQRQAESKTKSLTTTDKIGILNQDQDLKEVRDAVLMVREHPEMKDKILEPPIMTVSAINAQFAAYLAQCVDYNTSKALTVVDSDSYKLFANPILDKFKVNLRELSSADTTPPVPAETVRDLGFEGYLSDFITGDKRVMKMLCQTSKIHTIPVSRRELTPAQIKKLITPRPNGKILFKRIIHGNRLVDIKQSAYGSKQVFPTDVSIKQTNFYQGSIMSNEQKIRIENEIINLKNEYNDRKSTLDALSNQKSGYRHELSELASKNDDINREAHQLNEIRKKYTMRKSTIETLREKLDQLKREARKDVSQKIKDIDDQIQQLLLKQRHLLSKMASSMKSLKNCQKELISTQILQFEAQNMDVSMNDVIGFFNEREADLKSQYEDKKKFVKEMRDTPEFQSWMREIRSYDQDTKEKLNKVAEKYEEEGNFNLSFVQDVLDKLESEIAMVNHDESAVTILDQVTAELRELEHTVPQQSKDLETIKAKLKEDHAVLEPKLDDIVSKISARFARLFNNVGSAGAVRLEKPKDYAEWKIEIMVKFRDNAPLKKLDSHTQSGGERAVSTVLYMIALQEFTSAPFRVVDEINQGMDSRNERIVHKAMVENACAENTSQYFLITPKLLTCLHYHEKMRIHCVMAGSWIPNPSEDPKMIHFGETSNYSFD
Test: cross-linking; as a1 with the Nse5/6 dimer added in 1.25 x molar excess (0.625 uM) to the hexamer; SDS-PAGE, Coomassie
Conditions: both partners purified

B1: Nse5/6 dimer (complex, S. cerevisiae)
chain 1: MDGALINSVLYVSPRNGAHYFVELTEKHLLAFEMLNSMCLLENYDHVLLFLECQFGKSHNLAVIPFDIILVLFTLSTLSEYYKEPILRANDPYNTSRETLSRRALKLLQKYLAILKEFDSEQYNLYDLELLRCQFFLAIDTLTPKKQKWGFDRFRRTKSESGVTYRQNASVDPELDQAKTFKNPYRSYISCLEQRNTILGNRLLNLKLNEPGEFINMILWTLSNSLQESTPLFLSSHEIWMPLLEILIDLFSCRQDYFIQHEVAQNVSKSLFVQRLSESPLAVFFESLNTRNFANRFSEYVFLNCDYKLPSDNYATPVHPVYNGENTIVDTYIPTIKCSPLYKSQKSLALRRKLIGSCFKLLLRVPDGHRLITPRIVADDVIQGISRTLASFNDILQFKKFFMTENLSQESYFIPLLAEGTLSEILKDTQECVVILTLVENLSDGVSFCNEVIGLVKSKCFAFTEQCSQASYEEAVLNIEKCDVCLLVLLRYLLHLIGTEAILDAKEQLEMLHAIEKNDSGRRQWAKALNLGNDPPLLYPIVSQMFGVHDKSVIIE
chain 2: MGSVNSSPNEEFETVPDSQISGFDSPLIPTSVGSYFRDDDDDEKVHPNFISDPENDSLNSDEEFSSLENSDLNLSGAKAESGDDFDPILKRTIISKRKAPSNNEDEEIVKTPRKLVNYVPLKIFNLGDSFDDTITTTVAKLQDLKKEILDSPRSNKSIVITSNTVAKSELQKSIKFSGSIPEIYLDVVTKETISDKYKDWHFISKNCHYEQLMDLEMKDTAYSFLFGSSRSQGKVPEFVHLKCPSITNLLVLFGVNQEKCNSLKINYEKKENSRYDNLCTIFPVNKMLKFLMYFYSDDDNDDVREFFLKAFICLILDRKVFNAMESDHRLCFKVLELFNEAHFINSYFEIVDKNDFFLHYRLLQIFPHLQSALLRRRFSEKQGRTETIQQNIIKEFNEFFDCKNYKNLLYFILTMYGSKFIPFGPKCQVTEYFKDCILDISNETTNDVEISILKGILNLFSKIR
notes: Nse5, S. cerevisiae; a native cysteine of it cross-links to Smc5(G1054C); Nse6, S. cerevisiae; also called Nse5/6 loader; loader Nse5/6
B1: binds.
